Assay results: patent US20080058263A1 (published 2008)
Residue numbers refer to the chain shown, from its start.

T1: VEGFR-3-Fc (UniProt P35916 25-328)
T1 construct: domain: first three Ig domains; conditioned supernatant of 293T cells; also called VEGFR-3-Fc fusion protein; not shown: Fc fragment of the pIg vector
T1 sequence (looked up): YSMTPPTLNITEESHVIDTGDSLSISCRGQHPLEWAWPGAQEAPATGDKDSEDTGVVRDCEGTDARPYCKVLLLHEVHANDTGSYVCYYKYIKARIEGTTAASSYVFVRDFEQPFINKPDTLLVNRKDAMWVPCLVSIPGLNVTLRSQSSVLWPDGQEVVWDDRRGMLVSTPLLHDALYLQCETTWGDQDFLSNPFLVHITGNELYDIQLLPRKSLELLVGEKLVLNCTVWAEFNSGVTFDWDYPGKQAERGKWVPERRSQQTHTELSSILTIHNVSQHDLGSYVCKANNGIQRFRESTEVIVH

B1: 54-1 (ligand)
chain: AHYNTEILKSIDNEWRKTQCMPIETLVDIFQEFGVATNTFFKPSCVPLMRCGGCCNDEGLECVPTEESNITMQIMRIKPHQGQHIGEMSFLQHNKCECRPKKD
B2: 54-3 (ligand)
chain: B1 chain with D57S, E61Q
B3: 64-12 (ligand)
chain: GQNHHEVVKFMDVYQRSYCHPREVCIDVGKEFGVATNTFFKPSCVPLMRCGGCCNSEGLQCMNTSTSYLSKTLFEITVPLSQGPKPVTISFLQHNKCECRPKKD
B4: 44-16 (ligand)
chain: AHYNTEILKFMDVYQRSYCHPREVCIDVGKEFGVATNTFFKPSCVPLMRCGGCCNSEGLQCMNTSTSYLSKTLFEITVPLSQGPKPVTISFANHTSCRCMSKLD
B5: 54-10 (ligand)
chain: AHYNTEILKSIDNEWRKTQCMPIETLVDIFQEFGVATNTFFKPSCVPLMRCGGCCNDEGLECMNTSTSYLSKTLFEITVPLSQGPKPVTISFLQHNKCECRPKKD
B6: 64-1 (ligand)
chain: GQNHHEVVKFMDVYQRSYCHPREVCIDVGKEFGVATNTFFKPSCVPLMRCGGCCNDEGLECVPTEESNITMQIMRIKPHQGQHIGEMSFLQHNKCECRPKKD
B7: 64-7 (ligand)
chain: B6 chain with D56S, E60Q, L90A, Q91N, N93T, K94S, E96R, R98M, P99S, K101L
B8: 64-5 (ligand)
chain: B6 chain with L90A, Q91N, N93T, K94S, E96R, R98M, P99S, K101L
B9: 64-3 (ligand)
chain: B6 chain with D56S, E60Q
B10: 83-6 (ligand)
chain: AHYNTEILKFMDVYQRSYCHPIETLVDIFQEYPDEIEYIFKPPCVSVYRCGGCCNDEGLECMNTSTSYLSKTLFEIKPHQGQHIGEMSFANHTSCRCMSKLD
B11: 54-9 (ligand)
chain: AHYNTEILKSIDNEWRKTQCMPIETLVDIFQEFGVATNTFFKPSCVPLMRCGGCCNDEGLECVPTEESNITMQIMRITVPLSQGPKPVTISFLQHNKCECRPKKD
B12: 54-15 (ligand)
chain: B11 chain with D57S, E61Q, L93A, Q94N, N96T, K97S, E99R, R101M, P102S, K104L
B13: 54-11 (ligand)
chain: B11 chain with D57S, E61Q
B14: 54-13 (ligand)
chain: B11 chain with L93A, Q94N, N96T, K97S, E99R, R101M, P102S, K104L
B15: 24-2 (ligand)
chain: AHYNTEILKSIDNEWRKTQCMPREVCIDVGKEFGVATNTFFKPSCVPLMRCGGCCNDEGLECMNTSTSYLSKTLFEIKPHQGQHIGEMSFLQHNKCECRPKKD
B16: 24-8 (ligand)
chain: B15 chain with D57S, E61Q, L91A, Q92N, N94T, K95S, E97R, R99M, P100S, K102L
B17: 24-4 (ligand)
chain: B15 chain with D57S, E61Q
B18: 64-2 (ligand)
chain: GQNHHEVVKFMDVYQRSYCHPREVCIDVGKEFGVATNTFFKPSCVPLMRCGGCCNDEGLECMNTSTSYLSKTLFEIKPHQGQHIGEMSFLQHNKCECRPKKD
B19: 64-4 (ligand)
chain: B18 chain with D56S, E60Q
B20: 64-6 (ligand)
chain: B18 chain with L90A, Q91N, N93T, K94S, E96R, R98M, P99S, K101L
B21: 64-9 (ligand)
chain: GQNHHEVVKFMDVYQRSYCHPREVCIDVGKEFGVATNTFFKPSCVPLMRCGGCCNDEGLECVPTEESNITMQIMRITVPLSQGPKPVTISFLQHNKCECRPKKD
B22: 64-11 (ligand)
chain: B21 chain with D56S, E60Q

target: T2, VEGFR-1-Fc (UniProt P17948 27-338); assay: receptor-Fc IP
T2 construct: domain: first three Ig domains; expressed in Drosophila S2 cells, purified on Protein A sepharose; also called VEGFR-1-Fc fusion protein; not shown: Fc fragment from the Signal-pIgPlus vector
Summary of the method: (§1)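 Binding of ligand from sample supernatant measured by pentahistidine-antibody immunoprecipitation. IP mix: PBS with 1.5% BSA, 0.06% Tween 20, 3 μg/ml heparin and 400 ng/ml fusion protein, added 1:2 to sample supernatant.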

T2 sequence (P17948 27-338): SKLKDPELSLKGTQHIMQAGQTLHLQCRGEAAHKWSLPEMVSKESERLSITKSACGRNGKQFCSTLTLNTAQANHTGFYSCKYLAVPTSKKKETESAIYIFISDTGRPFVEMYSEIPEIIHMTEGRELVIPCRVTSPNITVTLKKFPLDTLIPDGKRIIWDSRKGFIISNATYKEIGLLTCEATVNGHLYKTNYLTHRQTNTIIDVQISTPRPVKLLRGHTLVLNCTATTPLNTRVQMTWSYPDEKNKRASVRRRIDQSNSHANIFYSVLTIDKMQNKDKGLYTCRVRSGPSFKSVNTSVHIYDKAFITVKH

Row | binding result | Binder
1 | no binding | B1
2 | no binding | B2
3 | no binding | B3
4 | no binding | B4
5 | no binding | B5
6 | no binding | B6
7 | no binding | B7
8 | no binding | B8
9 | no binding | B9
10 | no binding | B10
11 | no binding | B11
12 | no binding | B12
13 | no binding | B13
14 | no binding | B14
15 | no binding | B15
16 | no binding | B16
17 | no binding | B17
18 | no binding | B18
19 | no binding | B19
20 | no binding | B20
21 | no binding | B21
22 | no binding | B22

target: T3, VEGFR-2-Fc (UniProt P35968 20-322); assay: receptor-Fc IP
T3 construct: domain: first 3 Ig domains; conditioned supernatant of 293T cells; also called VEGFR-2-Fc fusion protein; not shown: Fc fragment of the pIg vector
Summary of the method: as §1

T3 sequence (P35968 20-322): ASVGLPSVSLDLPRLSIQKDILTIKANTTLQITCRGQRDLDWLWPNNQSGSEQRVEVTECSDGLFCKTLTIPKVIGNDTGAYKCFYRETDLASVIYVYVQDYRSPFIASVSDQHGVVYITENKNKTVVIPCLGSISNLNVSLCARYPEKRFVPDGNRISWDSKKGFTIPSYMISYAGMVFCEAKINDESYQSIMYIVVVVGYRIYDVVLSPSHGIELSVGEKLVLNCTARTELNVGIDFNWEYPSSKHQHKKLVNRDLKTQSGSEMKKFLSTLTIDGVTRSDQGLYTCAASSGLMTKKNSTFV

Row | binding result | Binder
23 | no binding | B1
24 | no binding | B2
25 | no binding | B3
26 | no binding | B4
27 | no binding | B5
28 | no binding | B6
29 | no binding | B7
30 | no binding | B8
31 | no binding | B9
32 | no binding | B10
33 | no binding | B11
34 | no binding | B12
35 | no binding | B13
36 | no binding | B14
37 | no binding | B15
38 | no binding | B16
39 | no binding | B17
40 | no binding | B18
41 | no binding | B19
42 | no binding | B20
43 | no binding | B21
44 | no binding | B22

target: T1, VEGFR-3-Fc; assay: receptor-Fc IP
Summary of the method: as §1

Row | binding result | Binder
45 | no binding | B1
46 | no binding | B2
47 | no binding | B3
48 | no binding | B4
49 | no binding | B5
50 | no binding | B6
51 | no binding | B7
52 | no binding | B8
53 | no binding | B9
54 | no binding | B10
55 | no binding | B11
56 | no binding | B12
57 | no binding | B13
58 | no binding | B14
59 | no binding | B15
60 | no binding | B16
61 | no binding | B17
62 | no binding | B18
63 | no binding | B19
64 | no binding | B20
65 | no binding | B21
66 | no binding | B22
